According to patent US20110280900A1 (INTERVET INTERNATIONAL B V, published 2011):

Biological target: the molecule itself
Assay: immunoblot after non-denaturing gel; only the 65 kDa band detected

B1: Clostridium chauvoei toxin A (CctA), native secreted toxin in C. chauvoei culture supernatants (other)
chain: QENTCIVETPSEGVKTFTSSDTAYADYNCFKTNLSVTFIEDQHNNQLTALVSTEGSFIPSGLSRVGGYYQADMYWPSKYYTTLTTYDRNNRVKITKSIPTNQIDTVSVSETMGYSIGGSLSIEYGKEGPKAGGGINGSYTAQRSVTYDQPDYRTLLMKDSVNSASWEVAFNATKDGYDRDSYHGIYGNQLFMRYRLYNTGINNLTTDNNLSSLIVGGFSPKVVIALTAPKGTEESTVKVEYNRFNDQYRLRWSGTEWYGENNRNSRIDSSSESFILNWKNHTVEHAGY
notes: also called CctA toxin; mature CctA
binding result: binds
